According to US20220411514A1, “ANTI-GAL3 ANTIBODIES AND METHODS OF USE FOR INSULIN RESISTANCE” (TrueBinding, Inc., priority 2021, published 2022):

How the values were obtained:
hGal3 peptide = molecular target: T1, hGal3 peptide (Homo sapiens, UniProt P17931); assay: Gal3 peptide library binding ELISA (Example 2)
T1 construct: a library of 24 amino acid peptides representing portions of Gal3
Method: To identify the epitopes to which Gal3 antibodies with and without Gal3-INSR blocking activity bound, a library of 24 amino acid peptides representing portions of Gal3, depicted in FIG. 18, was produced and the ability of each peptide to bind Gal3 antibodies was evaluated by ELISA. At least 2 μg/ml of hGal3 peptide in 50 μl of PBS or 0.1 μg/ml of full-length human Gal3 protein (GenScript) and human Galectin-3 protein (Acro Biosystems, GA3-H5129) were diluted in PBS (Corning, 21-030-CM) to concentrations of at least 2 μg/ml or 0.1 μg/ml, respectively, and added to the wells of a 96-well ELISA plate (Thermo Fisher, 44-2404-21). After incubating the plate at 4° C. overnight, the plate was washed three times with PBST (PBS with 0.05% Tween 20 [VWR, 0777]). The plate was then blocked for an hour with 2% BSA (EMD Millipore, 126609) in PBST at room temperature with gentle rocking. Thereafter, the 2% BSA in PBST was discarded and human Galectin-3 hybridoma supernatants or antibodies were diluted in 2% BSA in PBST to concentrations of at least 0.1 μg/ml and added to the wells. The plate was incubated for an hour at room temperature with gentle rocking and then washed three times with PBST. Afterwards, Goat Anti-Mouse IgG-HRP (Jackson ImmunoResearch, 115-036-1461) or Goat Anti-Rat IgG HRP (Abcam, ab205720) diluted in 2% BSA in PBST (1:4000) were added to the wells. The plate was incubated for 30 minutes to 1 hour at room temperature with gentle rocking and then washed three times with PBST. TMB substrate (Thermo Scientific, 34029) was then added to each well. The reaction was stopped with 1M HCl (JT Baker, 5620-02) and read using a plate reader (Molecular Devices) at absorbance of 450 nm.

Human Gal3 peptides = molecular target: T2, Human Gal3 peptides (Homo sapiens, UniProt P17931); assay: Gal3 peptide binding ELISA (Example 8); conditions: antibody 5 μg/mL
T2 construct: purchased LifeTein custom order
In short: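 Reformatted hIgG4 (S228P) anti-Gal3 antibodies were tested at 5 μg/mL for 1 h at room temperature against immobilised human Gal3 peptides (≥100 μg/mL coating) or protein (1 μg/mL coating) on BSA-blocked plates. Bound antibody read by peroxidase goat anti-human IgG with TMB at 450 nm.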

T1 sequence (P17931 62-81): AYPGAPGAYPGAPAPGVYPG

B1: 7D8.2D8: anti-Gal3 antibody (antibody)
heavy: EVQLVESGGGLVKPGGSLKLSCAASGFTFSSYAMSWVRQTPEKRLEWVATISDGGIYTYYPDNVKGRFTISRDNAKNNLFLQMSHLKSEDTAMYYCVRDGGYWGQGTTLTVSSAKTTPPSVYPLAPVCGDTTGSSVTLGCLVKGYFPEPVTLTWNSGSLSSGVHTFPAVLQSDLYTLSSSVTVTSSTWPSQSITCNVAHPASSTKVDKKIEPRGPTIKPCPPCKCPAPNAAGGPSVFIFPPKIKDVLMISLSPIVTCVVVDVSEDDPDVQISWFVNNVEVHTAQTQTHREDYNSTLRVVSALPIQHQDWMSGKEFKCKVNNKDLGAPIERTISKPKGSVRAPQVYVLPPPEEEMTKKQVTLTCMVTDFMPEDIYVEWTNNGKTELNYKNTEPVLDSDGSYFMYSKLRVEKKNWVERNSYSCSVVHEGLHNHHTTKSFSRTPGK
light: DVLMTQTPLSLPVSLGDQASISCRSSQSIVHSNGNTYLEWYLQKPGQSPKLLIYKVSNRFSGVPDRFSGSGSGTDFTLKISRVEAEDLGVYYCFQGSHVPLTFGAGTKLELKRADVAPTVSIFPPSSEQLTSGGASVVCFLNNFYPKDINVKWKIDGSERQNGVLNSWTDQDSKDSTYSMSSTLTLTKDEYERHNSYTCEATHKTSTSPIVKSFNRNEC
modifications: 7D8.2D8 heavy chain peptide sequence; 7D8.2D8 light chain peptide sequence
notes: anti-Gal3 antibody
bound: binding to Gal3 peptide 7 (amino acids 61-80, SEQ ID NO: 9) (hGal3 peptide) | binding to Gal3 peptide 2 (SEQ ID NO: 4) (Human Gal3 peptides) | binding to Gal3 peptide 3 (SEQ ID NO: 5) (Human Gal3 peptides) | binding to Gal3 peptide 17 (SEQ ID NO: 19) (Human Gal3 peptides)

B2: 15F10.2D6: anti-Gal3 antibody (antibody)
heavy: EVQLVESGGGLVKPGGSLKLSCAASGFAFSSYAMSWVRQTPEKRLEWVATISDGGVYTYYTDHVKGRFTISRDNAEDNLYLQMSHLKSEDTAMYYCVRDGGYWGQGTTLTVSSAKTTPPSVYPLAPVCGDTTGSSVTLGCLVKGYFPEPVTLTWNSGSLSSGVHTFPAVLQSDLYTLSSSVTVTSSTWPSQSITCNVAHPASSTKVDKKIEPRGPTIKPCPPCKCPAPNAAGGPSVFIFPPKIKDVLMISLSPIVTCVVVDVSEDDPDVQISWFVNNVEVHTAQTQTHREDYNSTLRVVSALPIQHQDWMSGKEFKCKVNNKDLGAPIERTISKPKGSVRAPQVYVLPPPEEEMTKKQVTLTCMVTDFMPEDIYVEWTNNGKTELNYKNTEPVLDSDGSYFMYSKLRVEKKNWVERNSYSCSVVHEGLHNHHTTKSFSRTPGK
light: DVLMTQTPLSLPVSLGDQASISCRSSQSIVHNNGNTYLEWYLQKPGQSPKLLIYKVSNRFSGVPDRFSGSGSGTDFTLKISRVEAEDLGVYYCFQGSHVPLTFGGGTKLELKRADVAPTVSIFPPSSEQLTSGGASVVCFLNNFYPKDINVKWKIDGSERQNGVLNSWTDQDSKDSTYSMSSTLTLTKDEYERHNSYTCEATHKTSTSPIVKSFNRNEC
modifications: 15F10.2D6 heavy chain peptide sequence; 15F10.2D6 light chain peptide sequence
notes: anti-Gal3 antibody
bound: binding to Gal3 peptide 7 (amino acids 61-80, SEQ ID NO: 9) (hGal3 peptide) | binding to Gal3 peptide 2 (SEQ ID NO: 4) (Human Gal3 peptides) | binding to Gal3 peptide 3 (SEQ ID NO: 5) (Human Gal3 peptides) | binding to Gal3 peptide 4 (SEQ ID NO: 6) (Human Gal3 peptides)
